Source: patent publication US20260008847A1 (ELPISCIENCE SUZHOU BIOPHARMA, published 2026)
Blank lines part the entries; values can stand above or below the binder they belong to.

Assays:
[1] = target: T1, Human LILRB2 stably expressed on EL4 cells (EL4/LILRB2) (human, UniProt Q8N423 22-597); assay: competitive FACS, blockade of HLA-G binding to LILRB2 on cells
T1 construct: also called EL4-LILRB2 cells; cell membrane human LILRB2
Description: (§1) The blocking activities were determined by quantitating the blockade of the ligands binding to EL4/LILRB2 cells.

[2] = target: T1, Human LILRB2 stably expressed on EL4 …; assay: Competitive FACS: EL4/LILRB2 cells preincubated with 10 ug/mL antibody, then HLA-A2 complex added; inhibition of the ligand's binding to the cells [panel HLA-A2]
Description: as §1

[3] = target: T1, Human LILRB2 stably expressed on EL4 …; assay: FACS on EL4/LILRB2 cells
[4] = target: T2, 6×His-tagged human LILRB2 ECD recombinant protein (human, UniProt Q8N423 22-458, limits assumed); assay: Bio-Layer Interferometry (Octet), 1:1 model, human LILRB2 ECD
T2 construct: Bought protein; not shown: 6×His-tag
T2 sequence (Q8N423 22-458 limits assumed): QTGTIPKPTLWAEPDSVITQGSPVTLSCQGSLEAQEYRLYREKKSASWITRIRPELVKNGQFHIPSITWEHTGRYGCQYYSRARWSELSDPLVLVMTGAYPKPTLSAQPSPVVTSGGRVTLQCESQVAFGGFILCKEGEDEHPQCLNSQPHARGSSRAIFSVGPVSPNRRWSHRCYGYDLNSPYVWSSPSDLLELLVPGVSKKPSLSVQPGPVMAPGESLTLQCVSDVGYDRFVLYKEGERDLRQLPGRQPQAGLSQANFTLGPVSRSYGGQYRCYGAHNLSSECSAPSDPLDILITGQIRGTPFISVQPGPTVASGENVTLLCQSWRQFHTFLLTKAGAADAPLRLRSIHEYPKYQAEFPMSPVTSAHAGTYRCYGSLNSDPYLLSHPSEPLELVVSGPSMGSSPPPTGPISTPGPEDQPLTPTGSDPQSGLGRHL

[5] = target: T3, Cell membrane human LILRB2 on human primary monocytes from healthy donors (human, UniProt Q8N423 22-597); assay: FACS on human primary monocytes, Donor #6004
T3 construct: whole, on cells; Endogenous receptor on donor cells; the donors' alleles are not known; Also used as the target in the functional assays on PBMCs, monocytes, macrophages and dendritic cells; also called membrane LILRB2; LILRB2 on human primary monocytes, PBMCs, monocyte derived macrophages and dendritic cells
T3 sequence (Q8N423 22-597): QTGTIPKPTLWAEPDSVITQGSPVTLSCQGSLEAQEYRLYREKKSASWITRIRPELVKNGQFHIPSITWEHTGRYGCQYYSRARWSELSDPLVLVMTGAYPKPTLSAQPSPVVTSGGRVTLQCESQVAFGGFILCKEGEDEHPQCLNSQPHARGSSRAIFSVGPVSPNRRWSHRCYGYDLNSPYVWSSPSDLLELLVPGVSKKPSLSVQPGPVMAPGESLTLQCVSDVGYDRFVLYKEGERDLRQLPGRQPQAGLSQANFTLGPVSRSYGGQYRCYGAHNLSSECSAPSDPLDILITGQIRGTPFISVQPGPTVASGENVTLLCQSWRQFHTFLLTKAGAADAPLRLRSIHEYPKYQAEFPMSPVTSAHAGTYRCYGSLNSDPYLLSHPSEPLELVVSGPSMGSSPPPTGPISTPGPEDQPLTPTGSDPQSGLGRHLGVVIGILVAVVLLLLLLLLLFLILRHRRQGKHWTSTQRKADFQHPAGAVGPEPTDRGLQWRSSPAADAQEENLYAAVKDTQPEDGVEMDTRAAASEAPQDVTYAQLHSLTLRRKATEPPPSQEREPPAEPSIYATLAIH

[6] = target: T3, Cell membrane human LILRB2 on human …; assay: FACS on human primary monocytes, Donor #1045
[7] = target: T1, Human LILRB2 stably expressed on EL4 …; assay: competitive FACS on EL4/LILRB2 cells, blockade of HLA-A2 binding
Description: as §1

[8] = target: T2, 6×His-tagged human LILRB2 ECD …; assay: Octet, 1:1 model; column printed as 'ka (1/Ms)', heads of c4 and c5 are swapped
[9] = target: T2, 6×His-tagged human LILRB2 ECD …; assay: Octet tandem binning on captured 6×His LILRB2 ECD; competitor (Ab1) 1E1
Description: Briefly, the HIS1K sensors were hydrolyzed for 10 minutes followed by capture of 6×His-tagged human LILRB2 ECD recombinant protein to 0.3 nm. The LILRB2 captured sensors were then exposed to Ab1 and Ab2 in tandem or Ab2 directly. The binding signals of Ab2 to LILRB2 under different conditions were detected respectively. Finally, the relative binding signals of Ab2 in tandem were calculated by normalization. High relative binding signals represent low competition between Ab2 and Ab1 for binding antigen. Likewise, low relative association signals represent high competition between Ab2 and Ab1.

[10] = target: T4, Human LILRB1 ECD recombinant protein with 6×His-tag (human, UniProt Q8NHL6 24-458, limits assumed); assay: ELISA: plate coated with LILRB1 ECD recombinant protein, antibody at 0.5 ug/mL (method of example 3.2.1); mean OD450 printed over the bar [continued) F]
T4 construct: Bought protein; not shown: 6×His-tag
T4 sequence (Q8NHL6 24-458 limits assumed): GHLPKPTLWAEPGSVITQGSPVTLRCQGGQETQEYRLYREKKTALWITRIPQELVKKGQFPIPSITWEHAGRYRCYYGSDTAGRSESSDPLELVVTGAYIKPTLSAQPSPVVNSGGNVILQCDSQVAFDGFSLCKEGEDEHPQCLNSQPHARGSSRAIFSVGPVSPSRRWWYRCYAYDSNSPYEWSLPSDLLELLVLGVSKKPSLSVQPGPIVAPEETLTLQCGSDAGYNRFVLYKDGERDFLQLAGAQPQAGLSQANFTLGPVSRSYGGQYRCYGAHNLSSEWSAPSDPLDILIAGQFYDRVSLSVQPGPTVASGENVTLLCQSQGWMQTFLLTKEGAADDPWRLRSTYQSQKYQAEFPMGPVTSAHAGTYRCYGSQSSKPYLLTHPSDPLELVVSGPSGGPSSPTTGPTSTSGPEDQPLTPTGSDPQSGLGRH

[11] = target: T3, Cell membrane human LILRB2 on human …; assay: cell-based or functional assay
[12] = target: T1, Human LILRB2 stably expressed on EL4 …; assay: Competitive FACS: EL4/LILRB2 cells preincubated with 10 ug/mL antibody, then ANGPTL1 added; inhibition of the ligand's binding to the cells [panel ANGPTL1]
Description: as §1

[13] = target: T1, Human LILRB2 stably expressed on EL4 …; assay: Competitive FACS: EL4/LILRB2 cells preincubated with 10 ug/mL antibody, then ANGPTL7 added; inhibition of the ligand's binding to the cells [panel ANGPTL7]
Description: as §1

[14] = target: T3, Cell membrane human LILRB2 on human …; assay: cell-based or functional assay; remark: listed apart in the source
[15] = target: T5, Human LILRA4 ECD recombinant protein with 6×His-tag (human, UniProt P59901 24-446); assay: ELISA: plate coated with LILRA4 ECD recombinant protein [continued) D]
T5 construct: range 1-446; Bought protein; not shown: 6×His-tag
T5 sequence (P59901 24-446 limits assumed): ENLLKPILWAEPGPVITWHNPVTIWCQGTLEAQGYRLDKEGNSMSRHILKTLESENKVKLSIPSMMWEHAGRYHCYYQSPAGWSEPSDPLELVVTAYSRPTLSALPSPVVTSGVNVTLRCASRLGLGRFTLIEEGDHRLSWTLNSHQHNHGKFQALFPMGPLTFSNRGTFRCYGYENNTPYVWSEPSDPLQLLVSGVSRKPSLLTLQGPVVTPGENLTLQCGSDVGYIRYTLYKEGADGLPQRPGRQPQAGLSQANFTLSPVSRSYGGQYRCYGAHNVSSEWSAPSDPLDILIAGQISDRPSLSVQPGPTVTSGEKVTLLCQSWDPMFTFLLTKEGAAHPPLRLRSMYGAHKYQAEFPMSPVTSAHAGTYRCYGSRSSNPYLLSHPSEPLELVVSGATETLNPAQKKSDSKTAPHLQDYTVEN

[16] = target: T6, Human LILRA2 ECD recombinant protein with His-tag (human, UniProt Q8N149 24-449); assay: ELISA: plate coated with LILRA2 ECD recombinant protein, antibody at 0.5 ug/mL (method of example 3.2.1); mean OD450 printed over the bar [continued) B]
T6 construct: range 24-449; Bought protein; not shown: His-tag
T6 sequence (Q8N149 24-449 limits assumed): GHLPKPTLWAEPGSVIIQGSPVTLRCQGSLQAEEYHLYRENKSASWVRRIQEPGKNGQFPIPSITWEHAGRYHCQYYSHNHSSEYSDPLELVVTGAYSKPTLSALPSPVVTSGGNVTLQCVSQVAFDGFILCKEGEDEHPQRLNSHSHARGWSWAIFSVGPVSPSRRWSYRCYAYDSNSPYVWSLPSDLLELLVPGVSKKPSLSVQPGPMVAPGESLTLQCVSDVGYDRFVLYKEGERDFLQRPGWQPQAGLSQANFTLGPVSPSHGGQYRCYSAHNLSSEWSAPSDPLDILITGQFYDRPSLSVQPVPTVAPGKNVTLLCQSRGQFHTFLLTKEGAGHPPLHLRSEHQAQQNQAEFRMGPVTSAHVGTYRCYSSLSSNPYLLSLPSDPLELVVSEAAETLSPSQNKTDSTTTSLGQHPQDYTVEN

T1 sequence (Q8N423 22-597 limits assumed): as the sequence (Q8N423 22-597) above

IC50 [1]: 0.11 nM
TOP Blocking (%) [1]: 100%
Inhibition (%) [2]: 100%
EC50 [3]: 0.73 nM
Kd [4]: 0.74 nM
koff [4]: 0.000557 s⁻¹
kon [4]: 756000 M⁻¹ s⁻¹
EC50 [5]: 0.29 nM
EC50 [6]: 0.32 nM
IC50 [7]: 0.48 nM
koff [8]: 0.00119 s⁻¹
relative binding signal of Ab2 in tandem [9]: 108%
OD450 [10]: 0.08
Relative cytokine level, CCL2/JE/MCP-1 (DC differentiation assay, Soluble antibody, Luminex) [11]: 2.36 fold of hIgG4 iso
Relative cytokine level, CCL3/MIP-1 alpha (DC differentiation assay, Pre-coat antibody, Luminex) [11]: > 5 fold of hIgG4 iso
Relative cytokine level, CCL3/MIP-1 alpha (DC differentiation assay, Soluble antibody, Luminex) [11]: 5.79 fold of hIgG4 iso
Relative cytokine level, CCL20/MIP-3 alpha (DC differentiation assay, Pre-coat antibody, Luminex) [11]: 1.75 fold of hIgG4 iso
Relative cytokine level, CCL20/MIP-3 alpha (DC differentiation assay, Soluble antibody, Luminex) [11]: 1.88 fold of hIgG4 iso
Relative cytokine level, CCL22/MDC (DC differentiation assay, Pre-coat antibody, Luminex) [11]: 2.61 fold of hIgG4 iso
Relative cytokine level, CCL22/MDC (DC differentiation assay, Soluble antibody, Luminex) [11]: 2.03 fold of hIgG4 iso
Relative cytokine level, CCL23/MPIF-1 (DC differentiation assay, Pre-coat antibody, Luminex) [11]: 0.48 fold of hIgG4 iso
Relative cytokine level, CCL23/MPIF-1 (DC differentiation assay, Soluble antibody, Luminex) [11]: 0.73 fold of hIgG4 iso
Relative cytokine level, IFN-beta (DC differentiation assay, Pre-coat antibody, Luminex) [11]: 3.39 fold of hIgG4 iso
Relative cytokine level, IFN-beta (DC differentiation assay, Soluble antibody, Luminex) [11]: 7.24 fold of hIgG4 iso
Relative cytokine level, IL6 (DC differentiation assay, Soluble antibody, Luminex) [11]: 1.93 fold of hIgG4 iso
Relative cytokine level, IL-1 alpha/IL-1F1 (DC differentiation assay, Pre-coat antibody, Luminex) [11]: 1.71 fold of hIgG4 iso
Relative cytokine level, IL-1 alpha/IL-1F1 (DC differentiation assay, Soluble antibody, Luminex) [11]: 1.71 fold of hIgG4 iso
Relative cytokine level, IL-6 (DC differentiation assay, Pre-coat antibody, Luminex) [11]: 1.61 fold of hIgG4 iso
Relative cytokine level, IL-8/CXCL8 (DC differentiation assay, Soluble antibody, Luminex) [11]: 1.65 fold of hIgG4 iso
Relative cytokine level, IL-10 (DC differentiation assay, Pre-coat antibody, Luminex) [11]: 2.16 fold of hIgG4 iso
Relative cytokine level, IL-10 (DC differentiation assay, Soluble antibody, Luminex) [11]: 1.69 fold of hIgG4 iso
Relative cytokine level, TNFα (DC differentiation assay, Pre-coat antibody, Luminex) [11]: 5.38 fold of hIgG4 iso
Relative cytokine level, TNFα (DC differentiation assay, Soluble antibody, Luminex) [11]: 4.71 fold of hIgG4 iso
Relative cytokine level, VEGF (DC differentiation assay, Pre-coat antibody, Luminex) [11]: 1.67 fold of hIgG4 iso
Relative cytokine level, VEGF (DC differentiation assay, Soluble antibody, Luminex) [11]: 1.43 fold of hIgG4 iso
Inhibition (%) [12]: 71%
Inhibition (%) [13]: 89%
Relative cytokine/chemokine level, B7-H1/PD-L1 (M2-T coculture 1:1, Luminex) [14]: 1.8 fold of Medium
Relative cytokine/chemokine level, CCL3/MIP-1 alpha (M2-T coculture 1:1, Luminex) [14]: 1.3 fold of Medium
Relative cytokine/chemokine level, CCL4/MIP-1 beta (M2-T coculture 1:1, Luminex) [14]: 2.4 fold of Medium
Relative cytokine/chemokine level, CCL5/RANTES (M2-T coculture 1:1, Luminex) [14]: 3.8 fold of Medium
Relative cytokine/chemokine level, CCL19/MIP-3 beta (M2-T coculture 1:1, Luminex) [14]: 0.3 fold of Medium
Relative cytokine/chemokine level, CCL20/MIP-3 alpha (M2-T coculture 1:1, Luminex) [14]: 2.2 fold of Medium
Relative cytokine/chemokine level, CXCL2/GRO beta (M2-T coculture 1:1, Luminex) [14]: 0.4 fold of Medium
Relative cytokine/chemokine level, FGF-basic (M2-T coculture 1:1, Luminex) [14]: 1.3 fold of Medium
Relative cytokine/chemokine level, G-CSF (M2-T coculture 1:1, Luminex) [14]: 2.3 fold of Medium
Relative cytokine/chemokine level, GM-CSF (M2-T coculture 1:1, Luminex) [14]: 1.6 fold of Medium
Relative cytokine/chemokine level, Granzyme B (M2-T coculture 1:1, Luminex) [14]: 7.6 fold of Medium
Relative cytokine/chemokine level, IFN-alpha (M2-T coculture 1:1, Luminex) [14]: 2.2 fold of Medium
Relative cytokine/chemokine level, IFN-gamma (M2-T coculture 1:1, Luminex) [14]: 4.1 fold of Medium
Relative cytokine/chemokine level, IL-1beta/IL-1F2 (M2-T coculture 1:1, Luminex) [14]: 1.9 fold of Medium
Relative cytokine/chemokine level, IL-2 (M2-T coculture 1:1, Luminex) [14]: 17.8 fold of Medium
Relative cytokine/chemokine level, IL-3 (M2-T coculture 1:1, Luminex) [14]: 3.6 fold of Medium
Relative cytokine/chemokine level, IL-4 (M2-T coculture 1:1, Luminex) [14]: 1.6 fold of Medium
Relative cytokine/chemokine level, IL-5 (M2-T coculture 1:1, Luminex) [14]: 2.3 fold of Medium
Relative cytokine/chemokine level, IL-6 (M2-T coculture 1:1, Luminex) [14]: 0.2 fold of Medium
Relative cytokine/chemokine level, IL-13 (M2-T coculture 1:1, Luminex) [14]: 1.8 fold of Medium
Relative cytokine/chemokine level, IL-15 (M2-T coculture 1:1, Luminex) [14]: 1.8 fold of Medium
Relative cytokine/chemokine level, PDGF-AA (M2-T coculture 1:1, Luminex) [14]: 4.3 fold of Medium
Relative cytokine/chemokine level, PDGF-AB/BB (M2-T coculture 1:1, Luminex) [14]: 1.5 fold of Medium
Relative cytokine/chemokine level, TGF-alpha (M2-T coculture 1:1, Luminex) [14]: 3.2 fold of Medium
Relative cytokine/chemokine level, TNF-alpha (M2-T coculture 1:1, Luminex) [14]: 4.8 fold of Medium
Relative cytokine/chemokine level, VEGF (M2-T coculture 1:1, Luminex) [14]: 0.3 fold of Medium
binding result [15]: no binding (tested: 0.5 ug/mL)
OD450 [16]: 0.08
B1: 043c (antibody, V domains shown)
VH: QVQLQQSGAELAKPGASVKLSCKASGYTFTSYWMYWVKQRPGQGLEWIGHINPSSGYTKYNQKFKDKATLTADKSSSTAYMQLSSLTYEDSAVYYCARDPNWDNYWGQGTTLTVSS
VL: DIVMTQSHKFMSTSVGDRVSITCKASQDVSIAVAWYQQKPGQSPKLLIYSASYRYTGVPDRFTGSGSGTDFTFTISSVQAEDLAVYYCQQHYSTPYTFGGGTKLEIK
notes: Human IgG4 chimeric antibody with S228P mutation at the Fc region; also called chimeric antibody 043c; parental antibody 043c

Inhibition (%) [2]: 99%
Kd [4]: 8.07 nM
koff [4]: 0.00204 s⁻¹
kon [4]: 253000 M⁻¹ s⁻¹
EC50 [5]: 0.91 nM
EC50 [6]: 0.84 nM
relative binding signal of Ab2 in tandem [9]: 3%
OD450 [10]: 0.08
Inhibition (%) [12]: 70%
Inhibition (%) [13]: 96%
binding result [15]: no binding (tested: 0.5 ug/mL)
OD450 [16]: 0.07
B2: 1E1 (antibody, V domains shown)
VH: QVQLQQWGAGLLKPSETLSLTCAVYGGSFSGYYWSWIRQPPGKGLEWIGEINHSGSTNYNPSLKSRVTISVDTSKNQFSLKLSSVTAADTAVYYCARLPTRWVTTRYFDLWGRGTLVTVSS
VL: QSVLTQPPSVSGAPGQRVTISCTGSSSNIGAGYDVHWYQQLPGTAPKLLIYGNSNRPSGVPDRFSVSKSGASASLAITGLQAEDEADYYCQSFDNSLSAYVFGGGTQLTVL
notes: Human IgG4 monoclonal antibody with S228P in the constant region, made according to US 2018/0298096 A1; also called benchmark antibody 1E1

IC50 [1]: 0.07 nM
TOP Blocking (%) [1]: 100%
Inhibition (%) [2]: 100%
Kd [4]: 2.14 nM
koff [4]: 0.00178 s⁻¹
kon [4]: 830000 M⁻¹ s⁻¹
relative binding signal of Ab2 in tandem [9]: 32%
OD450 [10]: 0.1
Inhibition (%) [12]: 70%
Inhibition (%) [13]: 97%
binding result [15]: no binding (tested: 0.5 ug/mL)
OD450 [16]: 0.08
B3: J-19 (antibody, V domains shown)
VH: QVTLKESGPGILQPSHTLSLTCSFSGFSLNTYAMGVSWIRQPSGKGLEWLASIWWNGNKYNNPSLKSRLTVSKDTSNNQAFLKVTSVDTADTATYYCAHSRIIRFTDYVMDAWGQGASVTVSS
VL: DIQMTQSPASLSTFLGEPVTIECRASEDIYNDLAWYQQKPGKSPQLLIYNANSLHTGVPSRFSGSGSGTQYSLKINSLQSEDVASYFCQQYYDYPLTFGSGTKLEIK
notes: Human IgG4 monoclonal antibody with S228P in the constant region, made according to WO 2019/126514 A2; also called benchmark antibody J-19
